Data reported in US20030170203A1 (Human Genome Sciences, published 2003).

Legend:
Test in all cases: flow cytometry on transiently transfected cells
[1] = target: T1, AITR on transiently transfected cells (UniProt Q9Y5U5 26-241, limits assumed)
T1 construct: whole, on cells
T1 sequence (looked up): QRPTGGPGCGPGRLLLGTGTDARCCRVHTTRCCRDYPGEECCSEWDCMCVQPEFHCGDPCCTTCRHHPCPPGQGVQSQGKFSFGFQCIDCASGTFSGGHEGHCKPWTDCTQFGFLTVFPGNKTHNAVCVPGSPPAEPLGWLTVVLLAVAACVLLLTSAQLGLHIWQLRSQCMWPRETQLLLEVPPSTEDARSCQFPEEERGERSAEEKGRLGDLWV
Experimental: (§1) One million cells, in 0.1 ml of FACS buffer (PBS, 0.1% BSA, 0.1% NaN₃), were incubated with 0.1-1 microgram of protein or antibody at RT for 15 min. The cells were washed with 3 ml of FACS buffer, reacted with biotinylated primary antibody, and stained with PE-conjugated secondary antibody at RT for 15 min. Cells were then washed again, resuspended in 0.5 microgram/ml of propidium iodide, and live cells were gated and analyzed on a FACScan using the CellQuest software (BD Biosciences).

[2] = target: T2, BCMA on transiently transfected cells (UniProt Q02223 1-184, limits assumed)
T2 construct: whole, on cells
T2 sequence (looked up): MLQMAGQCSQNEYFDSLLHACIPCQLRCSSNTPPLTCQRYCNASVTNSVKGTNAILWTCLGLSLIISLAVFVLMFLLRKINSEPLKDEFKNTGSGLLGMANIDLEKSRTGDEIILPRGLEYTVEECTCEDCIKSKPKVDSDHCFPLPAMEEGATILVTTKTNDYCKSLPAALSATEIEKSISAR
Experimental: as §1

[3] = target: T3, CD27 on transiently transfected cells (UniProt P26842 20-260, limits assumed)
T3 construct: whole, on cells
T3 sequence (looked up): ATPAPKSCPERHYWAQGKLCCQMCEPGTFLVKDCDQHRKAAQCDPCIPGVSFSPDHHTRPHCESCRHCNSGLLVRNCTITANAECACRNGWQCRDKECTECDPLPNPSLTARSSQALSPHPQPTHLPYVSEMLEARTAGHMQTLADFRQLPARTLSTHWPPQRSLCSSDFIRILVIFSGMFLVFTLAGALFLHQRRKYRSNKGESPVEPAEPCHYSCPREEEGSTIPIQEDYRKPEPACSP
Experimental: as §1

[4] = target: T4, RANK on transiently transfected cells (UniProt Q9Y6Q6 30-616, limits assumed)
T4 construct: whole, on cells
T4 sequence (looked up): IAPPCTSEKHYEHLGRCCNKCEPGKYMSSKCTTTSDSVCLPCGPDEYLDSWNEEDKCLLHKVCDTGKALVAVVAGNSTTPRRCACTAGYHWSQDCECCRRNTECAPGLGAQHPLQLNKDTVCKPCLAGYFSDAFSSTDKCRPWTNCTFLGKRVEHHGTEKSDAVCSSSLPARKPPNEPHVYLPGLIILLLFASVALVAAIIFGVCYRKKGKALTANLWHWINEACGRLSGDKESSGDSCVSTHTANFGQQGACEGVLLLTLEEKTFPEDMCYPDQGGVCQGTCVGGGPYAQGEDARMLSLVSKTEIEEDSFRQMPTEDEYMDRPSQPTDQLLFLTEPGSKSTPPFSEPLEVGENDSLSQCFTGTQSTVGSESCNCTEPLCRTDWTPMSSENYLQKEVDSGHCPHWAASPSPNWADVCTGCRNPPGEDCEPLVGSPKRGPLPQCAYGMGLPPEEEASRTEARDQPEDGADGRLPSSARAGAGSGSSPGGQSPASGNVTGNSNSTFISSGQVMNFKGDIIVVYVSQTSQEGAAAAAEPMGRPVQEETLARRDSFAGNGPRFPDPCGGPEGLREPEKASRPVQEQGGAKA
Experimental: as §1

[5] = target: T5, DR4 on transiently transfected cells (UniProt O00220 24-468, limits assumed)
T5 construct: whole, on cells
T5 sequence (looked up): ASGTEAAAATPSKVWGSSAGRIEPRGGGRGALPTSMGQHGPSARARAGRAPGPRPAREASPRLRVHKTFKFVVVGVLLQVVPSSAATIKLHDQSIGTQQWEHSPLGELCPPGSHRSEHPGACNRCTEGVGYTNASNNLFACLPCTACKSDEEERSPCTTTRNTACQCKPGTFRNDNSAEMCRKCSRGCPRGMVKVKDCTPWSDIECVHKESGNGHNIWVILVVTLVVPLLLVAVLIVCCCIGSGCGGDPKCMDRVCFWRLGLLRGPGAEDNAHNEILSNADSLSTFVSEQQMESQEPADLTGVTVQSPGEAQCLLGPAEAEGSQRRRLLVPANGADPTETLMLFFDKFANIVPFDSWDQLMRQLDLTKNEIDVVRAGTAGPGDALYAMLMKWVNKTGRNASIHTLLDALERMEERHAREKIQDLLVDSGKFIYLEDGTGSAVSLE
Experimental: as §1

[6] = target: T6, DcR2 on transiently transfected cells (UniProt Q9UBN6 56-386, limits assumed)
T6 construct: whole, on cells
T6 sequence (looked up): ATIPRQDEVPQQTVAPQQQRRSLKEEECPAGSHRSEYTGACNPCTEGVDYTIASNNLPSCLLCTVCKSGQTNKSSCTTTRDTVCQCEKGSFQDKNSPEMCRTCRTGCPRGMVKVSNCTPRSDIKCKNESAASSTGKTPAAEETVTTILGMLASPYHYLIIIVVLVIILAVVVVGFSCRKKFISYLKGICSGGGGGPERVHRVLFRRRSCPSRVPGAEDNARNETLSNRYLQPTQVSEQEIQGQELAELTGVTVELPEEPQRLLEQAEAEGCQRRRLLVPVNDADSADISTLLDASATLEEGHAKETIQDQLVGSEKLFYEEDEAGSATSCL
Experimental: as §1

Measured: binding result

B1: FLAG-tagged soluble form of TNF-gamma-beta (aa 72-251) (ligand, human, UniProt O95150 72-251, looked up)
chain: LKGQEFAPSHQQVYAPLRADGDKPRAHLTVVRQTPTQHFKNQFPALHWEHELGLAFTKNRMNYTNKFLLIPESGDYFIYSQVTFRGMTSECSEIRQAGRPNKPDSITVVITKVTDSYPEPTQLLMGTKSVCEVGSNWFQPIYLGAMFSLQEGDKLMVNVSDISLVDYTKEDKTFFGAFLL
notes: also called FLAG-TL1β; FLAG-TNF-gamma-beta; not shown: FLAG tag of vector pFLAGCMV1
no binding: all assays above
